In paper PMC5551578 (2017):

Molecular target: T1, tetanus toxoid (UniProt P04958 1-1315)
T1 chain: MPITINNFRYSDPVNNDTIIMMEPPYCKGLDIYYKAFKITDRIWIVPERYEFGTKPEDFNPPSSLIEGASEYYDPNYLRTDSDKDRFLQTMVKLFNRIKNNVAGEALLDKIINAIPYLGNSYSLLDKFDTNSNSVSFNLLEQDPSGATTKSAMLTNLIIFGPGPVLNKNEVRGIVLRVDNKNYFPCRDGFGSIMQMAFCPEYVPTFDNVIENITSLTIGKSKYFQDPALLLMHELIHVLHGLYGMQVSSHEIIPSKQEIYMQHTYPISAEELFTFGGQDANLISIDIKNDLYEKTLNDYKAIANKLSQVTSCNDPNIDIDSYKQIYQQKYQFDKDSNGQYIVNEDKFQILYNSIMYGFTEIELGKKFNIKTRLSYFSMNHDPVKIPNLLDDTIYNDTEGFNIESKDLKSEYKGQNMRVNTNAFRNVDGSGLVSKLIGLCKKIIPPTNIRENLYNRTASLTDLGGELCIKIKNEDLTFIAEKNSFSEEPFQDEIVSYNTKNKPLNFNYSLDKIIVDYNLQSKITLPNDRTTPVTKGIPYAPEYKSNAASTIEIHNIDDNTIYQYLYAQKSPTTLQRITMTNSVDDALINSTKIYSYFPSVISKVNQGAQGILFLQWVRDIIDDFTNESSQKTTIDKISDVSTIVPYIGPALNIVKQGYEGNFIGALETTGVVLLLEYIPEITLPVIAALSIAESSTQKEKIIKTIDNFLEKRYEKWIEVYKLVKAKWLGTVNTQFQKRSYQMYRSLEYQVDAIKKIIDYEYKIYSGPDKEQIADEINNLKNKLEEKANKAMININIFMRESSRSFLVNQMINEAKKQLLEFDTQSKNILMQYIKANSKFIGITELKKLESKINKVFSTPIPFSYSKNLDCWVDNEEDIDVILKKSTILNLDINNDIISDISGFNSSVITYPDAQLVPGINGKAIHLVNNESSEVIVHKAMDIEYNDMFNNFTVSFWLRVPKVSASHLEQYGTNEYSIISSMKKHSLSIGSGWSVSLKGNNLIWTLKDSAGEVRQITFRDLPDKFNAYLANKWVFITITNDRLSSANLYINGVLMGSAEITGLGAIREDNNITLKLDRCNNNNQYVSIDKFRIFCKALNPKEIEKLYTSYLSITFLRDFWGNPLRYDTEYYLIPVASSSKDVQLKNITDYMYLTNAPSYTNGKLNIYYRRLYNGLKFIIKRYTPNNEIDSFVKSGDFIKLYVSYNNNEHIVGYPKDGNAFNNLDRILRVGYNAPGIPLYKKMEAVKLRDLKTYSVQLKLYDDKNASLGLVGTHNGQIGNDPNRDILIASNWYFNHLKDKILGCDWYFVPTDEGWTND
Assay: ELISA

B1: TT-Ab12 (antibody, V domains shown)
VH: QVQLQESGPGLVKPSETLSLTCNVSGASISRYYWAWIRQPPGKGLEWIGYIYDSGTTTYNTSLKSRVTISRDTSKNQFSLNMMSVTAADTAVYYCARARYYYDSTGYFYGWLDPWGQGRLVTVSF
VL: DIQMTQSPSTLSASVGDRVTITCRASQSINIWLAWYQQRPGKAPDLLIYKASTLQSGVPSRFSGSGSGTEFTLTISSVQPDDFATYYCQQYKSYSCSFGQGTKVEIN
- EC50: 228 nM

B2: TT-Ab9 (antibody, V domains shown)
VH: EVQLVESGGSLVQPGGSLRLSCVGTGFTFNTYWMSWVRQAPGKGLEWVANIKQDGREKHYVDSVMGRFTVSRDNAMNALYLQVNSLRVEDTAVYYCARGMTAWSLGGYQYDYWGQGTQVTVSS
VL: DIQMTQSPSSLSASVGDTVTITCRASQGIRSDLGWYQQRPGKAPKLLVYTASTLQTGVPSRFSGSGFGTDFTLTISSLQPEDFATYYCLQNYNYPRTFGQGTKVEIK
- EC50: 1050 nM

B3: TT-Ab4 (antibody, V domains shown)
VH: EVQLVQSGAEMKKPGSSVKVSCRMSGGKFNNYAMSWVRQAPGQGLEWVGGIIPVLGTANYAQKFQDRVAITADKSTNTAYMELSSLRSDDTAVYYCARVWGTVVTQGPSQVQYNHYGMDVWGQGTTVTVSS
VL: DIQLTQSPSSLSASVGDRVTITCRATQSISSSLNWYQHKPGKAPNLLISAASNLQSGVPSRFSGSGSRTDFTLTITNLQPEDFATYYCQQSYTTPLTFGGGTKVEIK
- EC50: 1060 nM

B4: TT-Ab10 (antibody, V domains shown)
VH: EVQLVESGGGLVQPGGSLRVSCGASGFTFANFWMSWVRQAPGKGLEWVANINQDGNERKYVDSVKGRFTISRDNDKNSLYLQMNSLRAEDTAVYFCAREYGSYWRTYYFDDWGQGTLVTVSS
VL: DIVMTQSPATLSLSPGERATLSCRASQSVSNYLAWYQQKPGQAPRLLIYDASNRASGTPARFSGSGFGTDFTLTISSLDPEDFAVYYCQQGSNWLTFGGGTKVEIK
- EC50: 869 nM

B5: TT-Ab7 (antibody, V domains shown)
VH: EVQLVESGGGWVQPGGSLRLSCAASGFTFNSFGSYGMSWVRQAPGKGLEWVSHISASGAATYYADSVKGRFTISRDNSKNTLLLQMNDLRGEDTATYYCARSVQQYLGLLGYWGQGTLVTVSS
VL: QSVLTQSPSASASLGATVKLTCTLSSGHTNYAIAWHQLQPQKAPRYLLKISNDGSHKRGDGIPDRFSGSSSGAERYLTISSLQSEDEAEYYCQTWGAGMGMFGGGTKLTVL
- EC50: 655 nM
